Assay: yeast display, Sf9 membrane polyspecificity reagent, FACS + sequencing; frameworks hold sequencing errors
Procedure, shortened: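 Nanobodies came from a synthetic yeast display library in Saccharomyces cerevisiae BJ5465, induced with galactose for 36–48 hours and stained for 1 hour at 4 °C with 10% biotinylated, detergent-solubilized Sf9 membrane reagent. Cells were enriched on streptavidin microbeads and then FACS-sorted, with low and high (top ~1%) gates set on anti-HA fluorescence for expression and streptavidin fluorescence for reagent binding. Each polyreactivity label reflects the gate a clone came from. Genes were amplified by colony PCR, sequenced by MiSeq 2 × 250 and filtered by CDR length.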

| Sequence | polyreactivity (PSR sort gate) |
| --- | --- |
| QVQLEESGGGLVQAGGSLRLSCSASGRIFSRNAMGWYRQAPGKERELVAAIRPRGGTTYYADSVKGRFTISRDNAKNTVYLQINSLKPYDTAVYYCATGGGRNSTDRRRLHYTYYYWGQGTQVTVSS | low polyreactivity |
| QVQLEESGGGLVQAGGSLRLSCSASGSIFRGYAMGWYRQAPGKERELVAAITSGGRTNYADSVKGRFTISRDNAKITVYLQMNSLKPEVTAVYYWIAGFRFYAYSRIAGEDYWGQGSQVTVSS | low polyreactivity |
| QVQLEESGGGLVQAGGSLRLSGAASGYTFGHYGMGWYRQAPGKERELVAAINSGGSTNDADSVKGRFTISRDNAKNTVYVQMNSLKPEDTAVYYCAADHSGGSRYDYWGQGTLVTVSS | low polyreactivity |
| QVQLEESGGGLVQAGGSLRLSSAASGGIFDVSHMGWYRQAPGKERELVAAISENGGSTYYADSVKGRFTISRDNAKNTVYLLMNSLKPADTAVYYCAADYVSLSVFSYWAWYDYWGHGTQVTVSS | low polyreactivity |
| QVQLEESGGGLVQAGGSLRLSSAASGRIYTKNAMGRYRHAPGKERELVAAITTSGGSTYYADSVKGRFTISRDNAKNSVYLQMKSLKPEDTAVYYCAAERYNGYDYWGQGTQVSVSS | high polyreactivity |
| QVQLEESGGGLVQAGGSLRLTCAASGSIFDYNAMGWYRQAHGKERELVAAITSGGITYADSVKGRFTISRDNAKNTVYLQMNSLKPEDTAVYYCAALDKLSKYRRYRYGYWGQGTQVTVSS | high polyreactivity |
| QVQLEESGGGLVQAGGSLRLTCAASGSTVDKNDMGWYRPEPGQESELVAASTSSGSSTYYADSVKGRFTISRDNAKNTVYLQMNSLKPEDTAVYYCAADKYYYDRLSPSGDYLGQGTQVTVSS | low polyreactivity |
| QVQLEESGGGLVQAGGTLRLRCAASVIIYDDKTMGWYRQAPGKEMELVAPISSSRGSTYYADSVKGRFTISRDNAKNTVYLQMNSLKPEDTAVYYCAAAVYYTYPYIVFRNYPEFDYWGQGTQVSVSS | low polyreactivity |
| QVQLEESGGGLVQAGGTLRLSCAASGIIFDGNAMVWYRQAPGKERELVASITSDSSTNYADSVKGRFTISRDNAKNTVYLQMNSLKPEDTAVYYCAADHWIAPRRDYWGQGSQVTVSS | low polyreactivity |
| QVQLEESGGGLVQAGRSLRLSCAASGRIFWRYVMGWYRQAPGKERELVAAINRNGDNTSYADSVKGRFTISRDTAKNTVYLQMNSLKPEHTEVHYCNADWWWGYGYWGQGTQVSVSS | low polyreactivity |
| QVQLEESGGGLVQAVGIIRLSCGASVSIFDAYAIGWYRKAPGKETELVASITYGGRTNYADSVEGRFTISRDNAKNTVYLQMNSLKPEDTAVYYCAAGGGYYYRYHRYPRGYWGQGTQVTVTS | high polyreactivity |
| QVQLEESGGGLVQEGGSLRISCAASGRTFLRYVMGWYRQAPGKERALVAAISSRGGSTYYADSVKGRFTISRDNAKNTVYLQMNSLKPEDTAVYYCAARFKVRDYPDGNYEYWGQGTQVTVSS | high polyreactivity |
| QVQLEESGGGLVQEGGSLRLSCAASGSIFTQNARGWNRQAPGKERELVAAITISGGGTYYADSVKGRFTISRDNAKNTVYFQMNSQKPEDTAVYHCAAAGRARYYYRYGYWGQVTQVTVSS | low polyreactivity |
| QVQLEESGGGLVQPGGSLRLRCAASGITFYWNAMGWYRQAPVKERELVAGITNSGGGTYYADSVKGRFTISRDNSMYTVYLLMNSLKPEDSAVYYCAAEPTSWYFFYYVGDYLGQGTQVTVSS | high polyreactivity |
| QVQLEESGGGVVQAGGSLRLSCAASGRIFDRYDMARYRQAPGKERELVASISSGGSTYYADSVKGRFTISRVTAKNPVYLQMNSLKPEDTAVYYCNAEARSRRYRYDYWGQGTQVTVSS | high polyreactivity |
| QVQLEESGGRLLQAGGSLRLSCAASGCTFGSYDMGLYRQAPGKERELVARISSDGSTNYADSVKGRFSISRDNAKNTVYLQMNSLKPEDTAGYYCARDRKRQADDIGEFDYWGQGSQVTVSS | low polyreactivity |
| QVQLEESGGRLVQAGGSLRLSCAASGFTFRYYAMGWYRQAPGKERELVAAITSGGSTNYADSVKGRFTISRDNAKNTVYLQMNSLKPEDTAVYYCKKVPWGSRRMDYWGQGTQVTVSS | high polyreactivity |
